Results published in patent US20220259593A1, “CONTROL OF MAMMALIAN GENE DOSAGE USING CRISPR” (The Regents of the University of California, priority 2019, published 2022).

Tested on: K562 CRISPRi cells
Assay: Constant region variant library pooled growth screen, K562
Type: cell-based, human
Details: sgRNA constant region variants; activity relative to the original, un-modified constant region cr995
Outline: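 Growth screens in K562 CRISPRi cells were harvested 4-8 days post-selection at >2000× library coverage. Each variant's phenotype was referenced to the unmodified constant region with the same targeting sequence.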

Molecule | Mean relative activity
cr781 (nucleic acid, listed as DNA, chemistry not fully specified) guide: GTTTAAGAGCTAAGCTGGAAACAGCATAGCAAGTTTAAATAAGGCTAGTCCGTTATCAACTTGAAAAAGTGGCACCGAGTCGGTCCT | 0.8813
cr521 (nucleic acid, listed as DNA, chemistry not fully specified) guide: GTTTAAGAGCTAAGCTGGAAACAGCATAGCAAGTTTAAATAAGGCTGGTCCGTTATCAACTTGAAAAAGTGGCACCGTGTCGGTGCT | 0.8638
cr647 (nucleic acid, listed as DNA, chemistry not fully specified) guide: GTTTAAGAGCTAAGCTGGAAACAGGATAGCAAGTTTAAATAAGGCTAGTCCGTTATCAACTTGAAAAAGTGGCACCGAGTCGGTGCT | 0.8408
cr495 (nucleic acid, listed as DNA, chemistry not fully specified) guide: GTTTAAGAGCTAAGCTGGAAACAGCATAGCAAGTTTAAATAAGGCTAGTCCGTTATCAACTTGAAAAAGTGGCACCGAGACGGTGCT | 0.8462
cr319 (nucleic acid, listed as DNA, chemistry not fully specified) guide: GTTTAAGAGCTAAGCTGGAAACAGCATAGCAAGTTTAAATAGGGCTAGTCCGTTATCAACTTGAGAAAGTGGCACCGAGTCGGTGCT | 0.8419
cr184 (nucleic acid, listed as DNA, chemistry not fully specified) guide: GTTTAAGAGCTAAGCTGGAAACAGCATAGCAAGTTTAAATAAGGCTAGTCCGGTATCAACTTGGAAAAGTGGCACCGAGTCGGTGCT | 0.8653
cr914 (nucleic acid, listed as DNA, chemistry not fully specified) guide: GTTTAAGAGCTAAGCTGGAAACAGCATAGCAAGTTTAAATAAGACTAGTTCGTTATCAACTTGAAAAAGTGGGACCGAGTCGGTCCT | 0.8494
cr991 (nucleic acid, listed as DNA, chemistry not fully specified) guide: GTTTAAGAGCTAAGCTGGAAACAGCATAGCAAGTTTAAATAAGGCTAGTCCGATATCAACTTGACAAAGTGGCACCGAGTCGGTGCT | 0.8694
cr829 (nucleic acid, listed as DNA, chemistry not fully specified) guide: GTTTAAGAGCTAAGCTGGAAACAGCATACCAAGTTTAAATAAGGCTAGTCCGTTATCAACTTGAAAAAGTGGCACCGAGTCGGTGCT | 0.8571
cr899 (nucleic acid, listed as DNA, chemistry not fully specified) guide: GTTTAAGAGCTAAGCTGGAAACAGCATAGCAAGTTTAAATAAGACTAGTTCGTTATCAGCTTGAAAAAGCGGTACCGAGTCGGTACT | 0.8583
cr717 (nucleic acid, listed as DNA, chemistry not fully specified) guide: GTTTAAGAGCTAAGCTGGAAACAGCATAGCAAGTTTAAATAAGGTTAATCCGTTATCAGCTTGAAAAAGCGGCACCGAGTCGGTGCT | 1.056
cr943 (nucleic acid, listed as DNA, chemistry not fully specified) guide: GTTTAAGAGCTAAGCTGGAAACAGCATAGCAAGTTTAAATAAGGCTAGTCCGTTATCAACTTGAAAAAGTGACAACGAGTCGTTGTT | 0.8464
cr643 (nucleic acid, listed as DNA, chemistry not fully specified) guide: GTTTAAGAGCTAAGCTGGAAACAGCATAGCAAGTTTAAATAAGACTAGTTCGTTATCAGCTTGAAAAAGCGGCATCGAGTCGATGCT | 0.865
cr960 (nucleic acid, listed as DNA, chemistry not fully specified) guide: GTTTAAGAGCTAAGCTGGAAACAGCATAGCAAGTTTAAATAAGGCTAGTCCGTTATCATATTGAAAAATAGGCACCGAGTCGGTGCT | 0.8446
cr729 (nucleic acid, listed as DNA, chemistry not fully specified) guide: GTTTAAGAGCTAAGCTGGAAATAGCATAGCAAGTTTAAATAAGGCTAGTCCGTTATCAACTTGAAAAAGTGGCACCGAGTCGGTGCT | 0.8793
cr688 (nucleic acid, listed as DNA, chemistry not fully specified) guide: GTTTAAGAGCTAAGCTGGAAACAGCATAGCAAGTTTAAATAAGGCTAGTCCGTTATCAACTTGATAAAGTGGCACCGAGCCGGTGCT | 0.848

Molecule | Mean relative activity
cr878 (nucleic acid, listed as DNA, chemistry not fully specified) guide: GTTTAAGAGCTAAGCTGGAAACAGCATAGCAAGTTTAAATAAGGTTAATCCGTTATCAATTTGAAAAAATGGCATCGAGTCGATGCT | 0.847
cr105 (nucleic acid, listed as DNA, chemistry not fully specified) guide: GTTTAAGAGCTAAGCTGGAAACAGCATAGCAAGTTTAAATAAGGCCAGTCCGTTATCAACTTGACAAAGTGGCACCGAGTCGGTGCT | 0.8672
cr768 (nucleic acid, listed as DNA, chemistry not fully specified) guide: GTTTAAGAGCTAAGCTGGAAACAGCATAGCAAGTTTAAATAAGGCTAGTCCGTTATCAACTTGAAAAAGTGGCACCGAGCCGGTGCT | 0.8788
cr216 (nucleic acid, listed as DNA, chemistry not fully specified) guide: GTTTAAGAGCTAAGCTGGAAACAGCATAGCAAGTTTAAATAAGACTAGTTCGTTATCAACTTGAAAAAGTGGCACCGAGTCGGTGCT | 0.8652
cr676 (nucleic acid, listed as DNA, chemistry not fully specified) guide: GTTTAAGAGCTAAGCTGGAAACAGCATAGCAAGTTTAAATAAGGCTAGTCCGTTATCAACTTGGAAAAGTTGCACCGAGTCGGTGCT | 0.8506
cr236 (nucleic acid, listed as DNA, chemistry not fully specified) guide: GTTTAAGAGCTAAGCTGGAAACAACATAGCAAGTTTAAATAAGGCTAGTCCGTTATCAACTTGAAAAAGTGGCACCGAGTCGGTGCT | 0.8745
cr692 (nucleic acid, listed as DNA, chemistry not fully specified) guide: GTTTAAGAGCTAAGCTAGAAACAGCATAGCAAGTTTAAATAAGGCTAGTCCGTTATCAACTTGAAAAAGTGGCACCGAGTCGGTGCT | 0.8665
cr370 (nucleic acid, listed as DNA, chemistry not fully specified) guide: GTTTAAGAGCTAAGCTGGAAACAGCATAGCAAGTTTAAATAAGGCTAGTCCGTTATCAACTTGAGAAAGTGGCACGGAGTCCGTGCT | 0.8417
cr169 (nucleic acid, listed as DNA, chemistry not fully specified) guide: GTTTAAGAGCTAAGCTGGAAACAGCATAGCAAGTTTAAATAAGGCTAGTCCGTTATCAACTTGAGAAAGTGGCACCGAGCCGGTGCT | 0.8454
cr865 (nucleic acid, listed as DNA, chemistry not fully specified) guide: GTTTAAGAGCTAAGCTGGAAACAGCATAGCAAGTTTAAATAAGGCTAGTCCGTTATCATCTTGAAAAAGTGGCACCGAGTCGGTGCT | 0.8637
cr022 (nucleic acid, listed as DNA, chemistry not fully specified) guide: GTTTAAGTGCTAAGCTGGAAACAGCATAGCAAGTTTAAATAAGGCTAGTCCGTTATCAACTTGAAAAAGTGGCACCGAGTCGGTGCT | 1.058
cr891 (nucleic acid, listed as DNA, chemistry not fully specified) guide: GTTTAAGAGCTAAGCTGGAAACAGCATAGCAAGTTTAAATAAGACTAGTTCGTTATCAACTTGAAAAAGTGGTACCGAGTCGGTACT | 0.8641
cr153 (nucleic acid, listed as DNA, chemistry not fully specified) guide: GTTTAAGAGCTAAGCTGGAAACAGCATAGCAAGTTTAAATAAGGCTAGTCCGTTATCAAAATGAAAATTTGGCACCGAGTCGGTGCT | 0.8735
cr260 (nucleic acid, listed as DNA, chemistry not fully specified) guide: GTTTAAGAGCTAAGCTGGAAACAGCATAGCAAGTTTAAATAAGGCTAGTCCGATATCAACTTGAAAAAGTGGCACCGAGTCGGTGCT | 0.874
cr788 (nucleic acid, listed as DNA, chemistry not fully specified) guide: GTTTAAGAGCTAAGCTGGAAACAGCATATCAAGTTTAAATAAGGCTAGTCCGTTATCAACTTGAAAAAGTGGCACCGAGTCGGTGCT | 0.8617
